The source of these data is the supplement of paper PMC10567573.

This series is described as follows: protein stability index of a GFP-peptide fusion (GPS, HEK-293T) (PSI 1-6); higher = more stable. As to conditions: c terminus: a fixed tail appended.

± gives the standard deviation.
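Note: 24-mer peptide tiles fused after GFP, lentivirally expressed, FACS-sorted into six equal bins by GFP/DsRed ratio, decoded by Illumina sequencing, PSI is the read-weighted mean bin number.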

Take DENGRPYSPSQYALQYAGDGSVLL [NFE2L1]: the protein stability index by setting is: (treatment: DMSO) 3.57 ± 0.39; (treatment: MLN4924 1 uM, 8 h) 3.6 ± 0.34.

For the sequence DENLFTGEDLDELEEELNTLDLEE [ZC3H15], the protein stability index worked out at 5.18 ± 0.75 (treatment: DMSO) and 5.44 ± 0.21 (treatment: MLN4924 1 uM, 8 h).

DEQKEEEEEEGEEEELIRIFQEQQ [FAM9B]: the protein stability index was 5.51 ± 0.34 (treatment: DMSO) and 5.47 ± 0.29 (treatment: MLN4924 1 uM, 8 h).

DFFIVGCEVIFCVFIFYYVVEEIL [PKD2L1] gave a protein stability index (treatment: DMSO) of 1.92 ± 0.47 and a protein stability index (treatment: MLN4924 1 uM, 8 h) of 2 ± 0.3.

DFSSGGAAAAAAPAPPPPAGGATA [SNAP91] showed a protein stability index (treatment: DMSO) of 5.39 ± 0.3 and a protein stability index (treatment: MLN4924 1 uM, 8 h) of 5.37 ± 0.15.

Consider DGFFYFFHGTRQYKFDPKTKRILT [MMP1], for which the protein stability index is, setting by setting: (treatment: DMSO) 2.14 ± 0.48; (treatment: MLN4924 1 uM, 8 h) 2.28 ± 0.23.

Turning to DGLLGDNQIMPKAGLLIIVLAIIA [MAGEA3], the protein stability index is, setting by setting: (treatment: DMSO) 3.11 ± 0.91; (treatment: MLN4924 1 uM, 8 h) 2.46 ± 0.34.

Regarding DGLRLLGARARGVAMLGVFLVSAV [SOAT2], the protein stability index is, setting by setting: (treatment: DMSO) 2.56 ± 0.53; (treatment: MLN4924 1 uM, 8 h) 2.49 ± 0.38.

For the sequence DGQYLGVAFRGLKGKKLYPVVSAV [SPSB4], the protein stability index worked out at 2.08 ± 0.38 (treatment: DMSO) and 2.51 ± 0.49 (treatment: MLN4924 1 uM, 8 h).

With DINLSVRKLLNRHNIVFGDYTWTE [TRIP13], the protein stability index turned out to be 2.28 ± 0.29 (treatment: DMSO) and 2.22 ± 0.4 (treatment: MLN4924 1 uM, 8 h).

With DIRAKKIASIADVCESMKEQLLVL [HNF4A], the protein stability index came out at 2.5 ± 0.35 (treatment: DMSO) and 2.26 ± 0.22 (treatment: MLN4924 1 uM, 8 h).

As for DKNLTEREVFNEIYPVWTYSYLVL [SLC19A2], the protein stability index by setting is: (treatment: DMSO) 2.81 ± 0.64; (treatment: MLN4924 1 uM, 8 h) 2.65 ± 0.46.

For the sequence DLENRCQSLTEDLEFRKSMYEEEI [LMNB1], the protein stability index (treatment: DMSO) is 4.91 ± 0.056 and the protein stability index (treatment: MLN4924 1 uM, 8 h) came to 4.76 ± 0.13.

Take DLGASSLHVNGESLEMDSDEDDSE [EHMT1]: the protein stability index was determined as 5.52 ± 0.15 (treatment: DMSO) and 5.62 ± 0.14 (treatment: MLN4924 1 uM, 8 h).

Regarding DLIKHQRIHTEEKPYKCQQCDKRF [ZNF75A], the protein stability index by setting is: (treatment: DMSO) 2.99 ± 0.23; (treatment: MLN4924 1 uM, 8 h) 3.31 ± 0.16.

In the case of DLNGAQIKLREYEAALNSKDAALA [LMNB1], the protein stability index runs as follows: (treatment: DMSO) 3.5 ± 0.18; (treatment: MLN4924 1 uM, 8 h) 3.71 ± 0.39.

Take DLRVLVSNASEDTRRLRLAHVGME [SCARA5]: the protein stability index is, setting by setting: (treatment: DMSO) 2.9 ± 0.17; (treatment: MLN4924 1 uM, 8 h) 3.15 ± 0.11.

For DLSGLPLQSSKNSYSFQNPSSFDP [RNF180], the protein stability index was 3.75 ± 0.065 (treatment: DMSO) and 3.78 ± 0.074 (treatment: MLN4924 1 uM, 8 h).

As for DLSVEERSFVEKHRWPSNMYLKQL [RHOBTB3], the protein stability index reads like this: (treatment: DMSO) 3.01 ± 0.24; (treatment: MLN4924 1 uM, 8 h) 2.98 ± 0.18.

For the sequence DLTVGRAPTADDDDDDHDDHEDND [NOL4L], the protein stability index is 5.56 ± 0.18 (treatment: DMSO) and 5.5 ± 0.15 (treatment: MLN4924 1 uM, 8 h).

As for DNLLRSTQKLSHSTKPSGSPLEEK [MATN2], the protein stability index was 5.31 ± 0.37 (treatment: DMSO) and 5.07 ± 0.37 (treatment: MLN4924 1 uM, 8 h).

On to DNMYRLAHFSPFLYYQSQELPNGS [PDZK1], for which the protein stability index runs as follows: (treatment: DMSO) 2.12 ± 0.22; (treatment: MLN4924 1 uM, 8 h) 2.33 ± 0.23.

Consider DNPANRSLVLPWSFPLEWAPQNLT [TOR1AIP2], for which the protein stability index came out at 2.87 ± 0.23 (treatment: DMSO) and 2.79 ± 0.17 (treatment: MLN4924 1 uM, 8 h).

As for DPKKLLTQHFVQENYLEYRQVPGS [MAGEA3], the protein stability index is, setting by setting: (treatment: DMSO) 3.62 ± 0.22; (treatment: MLN4924 1 uM, 8 h) 3.76 ± 0.13.

Consider DREDSPERCSDSDEEKKARRGRSP [CLINT1], for which the protein stability index was 5.59 ± 0.3 (treatment: DMSO) and 5.34 ± 0.25 (treatment: MLN4924 1 uM, 8 h).

On to DREGPSSSKLVTKKAPQPAKPRLA [HDAC6], for which the protein stability index runs as follows: (treatment: DMSO) 5.09 ± 0.3; (treatment: MLN4924 1 uM, 8 h) 5.06 ± 0.35.

As to DRTSHRLHTANLGDSGFLVVRGGE [PPTC7], the protein stability index is, setting by setting: (treatment: DMSO) 4.08 ± 0.21; (treatment: MLN4924 1 uM, 8 h) 4.11 ± 0.27.

With DSASPVEDTSNDESSILGTDIDLQ [M1AP], the protein stability index (treatment: DMSO) worked out at 5.62 ± 0.2 and the protein stability index (treatment: MLN4924 1 uM, 8 h) is 5.62 ± 0.21.

As for DSEEDEKMEEDIKEEEEKDHNEAM [PCMTD1], the protein stability index by setting is: (treatment: DMSO) 5.81 ± 0.082; (treatment: MLN4924 1 uM, 8 h) 5.64 ± 0.2.

In the case of DSEHEPVYRAELVGELNGYLRDSS [PWWP2B], the protein stability index came to 4.46 ± 0.14 (treatment: DMSO) and 4.45 ± 0.16 (treatment: MLN4924 1 uM, 8 h).

In turn, DSHYGTKGLKKVVHETPAASKTVF [BTBD1] returned a protein stability index (treatment: DMSO) of 4.05 ± 0.095 and a protein stability index (treatment: MLN4924 1 uM, 8 h) of 4.14 ± 0.28.

Take DSKIAFLMQLQDIQYLTENIWASQ [IQUB]: the protein stability index (treatment: DMSO) amounted to 2.9 ± 0.64 and the protein stability index (treatment: MLN4924 1 uM, 8 h) is 2.46 ± 0.62.

As to DSNMPHFQTLQAIVSHFQKLFDVP [CEP70], the protein stability index reads like this: (treatment: DMSO) 2.38 ± 0.1; (treatment: MLN4924 1 uM, 8 h) 2.47 ± 0.22.

Take DSSHERTESQLTPCIRNVTSPTRQ [BTBD10]: the protein stability index reads like this: (treatment: DMSO) 5.06 ± 0.15; (treatment: MLN4924 1 uM, 8 h) 5.1 ± 0.12.

In the case of DVESGQLLQSFHGHGADVLCLDLA [GNB5], the protein stability index reads like this: (treatment: DMSO) 3.69 ± 0.28; (treatment: MLN4924 1 uM, 8 h) 3.81 ± 0.31.

Sequence DVIIEVNGVNVLDEPYEKVVDRIQ [PDZK1] displayed a protein stability index (treatment: DMSO) of 3.73 ± 0.32 and a protein stability index (treatment: MLN4924 1 uM, 8 h) of 3.81 ± 0.97.
